For one data set, the system named is calcitonin oligomer. The settings on record: cited from earlier work.
The conditions of data set [1]: cited from earlier work.
For data set [2] the following is noted: 4 °C, 100 mM DCl (pH 1); cited from earlier work.
Data set [3] can be described thus: Pyrene fluorescence II/IIII ratio assay for micelle-like oligomer formation. To be noted: pH 7.3, 20 mM phosphate buffer, 50 mM NaCl, 1 μM pyrene, 25 °C. In kind it is physicochemical.

Like-named read-outs stand apart in the source and are kept apart here. Where no end group is shown, it is not given here.

As to `O=C(O[C@@H]1Cc2c(O)cc(O)cc2O[C@@H]1c1cc(O)c(O)c(O)c1)c1cc(O)c(O)c(O)c1` [EGCG], the “effect on formation of the calcitonin oligomer” value in the data set with calcitonin oligomer is given as “completely abolish”.
As to “Aβ1–40: amyloid-beta peptide 1–40, linked to Alzheimer's disease”, the critical concentration in data set [1] (10 mM phosphate buffer, pH 7.3) was 8 µM. The critical concentration in data set [1] (0.1 M Tris, pH 7.4 20 °C) is 25 µM. In addition, in data set [1] (pyrene and surface tension studies), the “critical concentration for micelle-like oligomers” value was 17 µM. Further, in data set [2], the “length of spherocylindrical micelle structures (SANS)” value is reported as 11 nm and the “radius of spherocylindrical micelle structures (SANS)” value is 2.4 nm.
For “hIAPP1–19: N-terminal 1–19 fragment of hIAPP, significantly less amyloidogenic than the full-length peptide (KCNTATCATQRLANFLVHS; ends and bridges not checked; cysteine pairing not given here; UniProt P10997 34-52, looked up, fragment)”, the “micelle-like oligomer formation over the concentration range tested (pyrene II/IIII)” value in data set [3] is listed as “did not form oligomers”.

(Values after article PMC11444341 (The journal of physical chemistry. B, 2015).)
